The target in experiment [1] is recombinant human IgE, SE44 (human) (UniProt P01854). The experiment can be described thus: ELISA titration on plate-coated SE44 (human IgE); Fab detected with biotin-sheep anti-human Fd and Neutra-avidin-AP (Example 6). (In general: In an ELISA, binding on a coated surface is turned into a signal by an enzyme label.)
Experiment [2] shares this target. Described as above. The source holds these as a separate data set.

Where two headings read alike, the source gives them in different places.

B1: murine TES-C21 Fab (Fab, from another filing, V domains shown)
VH: QVQLQQSGAELMKPGASVKISCKTTGYTFSMYWLEWVKQRPGHGLEWVGEISPGTFTTNYNEKFKAKATFTADTSSNTAYLQLSGLTSEDSAVYFCARFSHFSGSNYDYFDYWGQGTSLTVSS
VL: DILLTQSPAILSVSPGERVSFSCRASQSIGTNIHWYQQRTDGSPRLLIKYASESISGIPSRFSGSGSGTEFTLNINSVESEDIADYYCQQSDSWPTTFGGGTKLEIK
As a reminder, the EC50 (read off the curve) is the concentration that produces a half-maximal response. On to B1, for which the results for the EC50 (read off the curve) in experiment [1] and in experiment [2] were 0.04 µg/mL and 0.05 µg/mL, respectively.

These data come from US20060251644A1.
